The array DNA melting data of Ke et al.

Assay: melting temperature; melt of duplexes
Conditions: sodium 0.0675 M; strand 1 µM
Substance “CGACGTGCTCGATGTGCTG+CAGCACATTGAGCACGTCG ((((((((((.((((((((+)))))))).))))))))))” has a Tm of 60.7 °C.
Substance “CGACGTGCCGGATGTGCTG+CAGCACATACCGCACGTCG ((((((((.(.((((((((+)))))))).).))))))))” has a Tm of 53.6 °C.
For “CGACGTGCTTAATGTGCTG+CAGCACATAAAGCACGTCG ((((((((((.((((((((+)))))))).))))))))))”, the Tm was 56.2 °C.
Substance “CGACGTGCAAAATGTGCTG+CAGCACATTATGCACGTCG (((((((((.(((((((((+))))))))).)))))))))” has a Tm of 55.1 °C.
Substance “CGACGTGCTTAATGTGCTG+CAGCACATTTAGCACGTCG (((((((((.(((((((((+))))))))).)))))))))” has a Tm of 55.5 °C.
Work on “CGACGTGCAGCATGTGCTG+CAGCACATTTGGCACGTCG ((((((((...((((((((+))))))))...))))))))” yielded a Tm of 45.4 °C.
Work on “CGACGTGCCAGATGTGCTG+CAGCACATAGTGCACGTCG ((((((((...((((((((+))))))))...))))))))” yielded a Tm of 45.6 °C.
In the case of “CGACGTGCCCGATGTGCTG+CAGCACATCGGGCACGTCG (((((((((((((((((((+)))))))))))))))))))”, the Tm is reported as 68.2 °C.
In the case of “CGACGTGCTGTATGTGCTG+CAGCACATGTTGCACGTCG ((((((((...((((((((+))))))))...))))))))”, the Tm is reported as 50.4 °C.
With “CGACGTGCCGTATGTGCTG+CAGCACATCATGCACGTCG ((((((((...((((((((+))))))))...))))))))” the Tm was 48.9 °C.
In the case of “CGACGTGCATCATGTGCTG+CAGCACATGTGGCACGTCG ((((((((..(((((((((+)))))))))..))))))))”, the Tm is reported as 55 °C.
With “CGACGTGCTGAATGTGCTG+CAGCACATTCTGCACGTCG ((((((((.((((((((((+)))))))))).))))))))” the Tm was 59.2 °C.
“CGACGTGCCACATGTGCTG+CAGCACATGGGGCACGTCG (((((((((.(((((((((+))))))))).)))))))))” gave a Tm of 63.6 °C.
Work on “CGACGTGCTTCATGTGCTG+CAGCACATGGCGCACGTCG ((((((((..(((((((((+)))))))))..))))))))” yielded a Tm of 53 °C.
Work on “CGACGTGCCCCATGTGCTG+CAGCACATCATGCACGTCG ((((((((...((((((((+))))))))...))))))))” yielded a Tm of 46.5 °C.
Substance “CGACGTGCCTCATGTGCTG+CAGCACATTACGCACGTCG ((((((((.(.((((((((+)))))))).).))))))))” has a Tm of 46.4 °C.
In the case of “CGACGTGCGTGATGTGCTG+CAGCACATCTCGCACGTCG (((((((((.(((((((((+))))))))).)))))))))”, the Tm is reported as 61.3 °C.
“CGACGTGCTTGATGTGCTG+CAGCACATAAGGCACGTCG ((((((((.(.((((((((+)))))))).).))))))))” gave a Tm of 52.3 °C.
“CGACGTGCTACATGTGCTG+CAGCACATTACGCACGTCG ((((((((...((((((((+))))))))...))))))))” showed a Tm of 48.7 °C.
With “CGACGTGCGGAATGTGCTG+CAGCACATCGGGCACGTCG ((((((((...((((((((+))))))))...))))))))” the Tm was 50 °C.
Work on “CGACGTGCTCTATGTGCTG+CAGCACATCGCGCACGTCG ((((((((.(.((((((((+)))))))).).))))))))” yielded a Tm of 48.3 °C.
“CGACGTGCAAAATGTGCTG+CAGCACATCATGCACGTCG (((((((((..((((((((+))))))))..)))))))))” showed a Tm of 49.9 °C.
“CGACGTGCTACATGTGCTG+CAGCACATCCCGCACGTCG ((((((((...((((((((+))))))))...))))))))” gave a Tm of 47.4 °C.
For “CGACGTGCGGAATGTGCTG+CAGCACATTCGGCACGTCG ((((((((.((((((((((+)))))))))).))))))))”, the Tm was 59.9 °C.
Substance “CGACGTGCCATATGTGCTG+CAGCACATTAGGCACGTCG (((((((((..((((((((+))))))))..)))))))))” has a Tm of 55.6 °C.
For “CGACGTGCGCTATGTGCTG+CAGCACATTTGGCACGTCG ((((((((...((((((((+))))))))...))))))))”, the Tm was 49.2 °C.
“CGACGTGCCATATGTGCTG+CAGCACATTGCGCACGTCG ((((((((...((((((((+))))))))...))))))))” showed a Tm of 51.5 °C.
Substance “CGACGTGCGACATGTGCTG+CAGCACATACTGCACGTCG ((((((((...((((((((+))))))))...))))))))” has a Tm of 49.9 °C.
Substance “CGACGTGCTCAATGTGCTG+CAGCACATGAAGCACGTCG (((((((((..((((((((+))))))))..)))))))))” has a Tm of 53.6 °C.
Work on “CGACGTGCACTATGTGCTG+CAGCACATGGTGCACGTCG ((((((((((.((((((((+)))))))).))))))))))” yielded a Tm of 56.6 °C.
For “CGACGTGCACGATGTGCTG+CAGCACATTACGCACGTCG ((((((((...((((((((+))))))))...))))))))”, the Tm was 46 °C.
For “CGACGTGCCCGATGTGCTG+CAGCACATGCCGCACGTCG ((((((((...((((((((+))))))))...))))))))”, the Tm was 48.1 °C.
“CGACGTGCCGTATGTGCTG+CAGCACATTGTGCACGTCG ((((((((...((((((((+))))))))...))))))))” gave a Tm of 45.5 °C.
“CGACGTGCGGAATGTGCTG+CAGCACATCCTGCACGTCG ((((((((.(.((((((((+)))))))).).))))))))” gave a Tm of 55.2 °C.
For “CGACGTGCAGTATGTGCTG+CAGCACATGCAGCACGTCG ((((((((.(.((((((((+)))))))).).))))))))”, the Tm was 54.7 °C.
Work on “CGACGTGCTGCATGTGCTG+CAGCACATATCGCACGTCG ((((((((...((((((((+))))))))...))))))))” yielded a Tm of 48.3 °C.
With “CGACGTGCGACATGTGCTG+CAGCACATAACGCACGTCG (((((((((..((((((((+))))))))..)))))))))” the Tm was 54.2 °C.
In the case of “CGACGTGCTCGATGTGCTG+CAGCACATTGGGCACGTCG ((((((((.(.((((((((+)))))))).).))))))))”, the Tm is reported as 55.7 °C.
Substance “CGACGTGCGGGATGTGCTG+CAGCACATGACGCACGTCG (((((((((..((((((((+))))))))..)))))))))” has a Tm of 57.6 °C.
Work on “CGACGTGCTATATGTGCTG+CAGCACATTAGGCACGTCG ((((((((...((((((((+))))))))...))))))))” yielded a Tm of 51.4 °C.
“CGACGTGCTTCATGTGCTG+CAGCACATGGAGCACGTCG (((((((((.(((((((((+))))))))).)))))))))” showed a Tm of 60 °C.
Substance “CGACGTGCCTTATGTGCTG+CAGCACATCGAGCACGTCG ((((((((...((((((((+))))))))...))))))))” has a Tm of 48.3 °C.
For “CGACGTGCATGATGTGCTG+CAGCACATAGTGCACGTCG (((((((((..((((((((+))))))))..)))))))))”, the Tm was 49.6 °C.
“CGACGTGCCGTATGTGCTG+CAGCACATGACGCACGTCG ((((((((...((((((((+))))))))...))))))))” gave a Tm of 47.8 °C.
“CGACGTGCCTAATGTGCTG+CAGCACATGCGGCACGTCG (((((((((..((((((((+))))))))..)))))))))” gave a Tm of 53.3 °C.
With “CGACGTGCCTCATGTGCTG+CAGCACATAATGCACGTCG ((((((((.(.((((((((+)))))))).).))))))))” the Tm was 48 °C.
In the case of “CGACGTGCGACATGTGCTG+CAGCACATCCCGCACGTCG (((((((((..((((((((+))))))))..)))))))))”, the Tm is reported as 52.3 °C.
Substance “CGACGTGCCCAATGTGCTG+CAGCACATTGGGCACGTCG (((((((((((((((((((+)))))))))))))))))))” has a Tm of 66 °C.
Work on “CGACGTGCGTAATGTGCTG+CAGCACATATGGCACGTCG ((((((((...((((((((+))))))))...))))))))” yielded a Tm of 51 °C.
“CGACGTGCTAGATGTGCTG+CAGCACATGTAGCACGTCG ((((((((((.((((((((+)))))))).))))))))))” showed a Tm of 56.8 °C.
Work on “CGACGTGCGGCATGTGCTG+CAGCACATTATGCACGTCG ((((((((...((((((((+))))))))...))))))))” yielded a Tm of 49 °C.
Work on “CGACGTGCGCAATGTGCTG+CAGCACATGCCGCACGTCG (((((((((..((((((((+))))))))..)))))))))” yielded a Tm of 56.6 °C.
For “CGACGTGCAGTATGTGCTG+CAGCACATTTCGCACGTCG ((((((((...((((((((+))))))))...))))))))”, the Tm was 49.7 °C.
For “CGACGTGCATGATGTGCTG+CAGCACATGGGGCACGTCG ((((((((...((((((((+))))))))...))))))))”, the Tm was 50 °C.
“CGACGTGCTATATGTGCTG+CAGCACATAAGGCACGTCG ((((((((..(((((((((+)))))))))..))))))))” gave a Tm of 52.5 °C.
For “CGACGTGCCGCATGTGCTG+CAGCACATGCAGCACGTCG ((((((((.((((((((((+)))))))))).))))))))”, the Tm was 60 °C.
For “CGACGTGCAATATGTGCTG+CAGCACATAATGCACGTCG (((((((((.(((((((((+))))))))).)))))))))”, the Tm was 54.6 °C.
In the case of “CGACGTGCCCAATGTGCTG+CAGCACATTCTGCACGTCG ((((((((..(((((((((+)))))))))..))))))))”, the Tm is reported as 49.9 °C.
“CGACGTGCAGGATGTGCTG+CAGCACATCACGCACGTCG ((((((((..(((((((((+)))))))))..))))))))” gave a Tm of 55.9 °C.
“CGACGTGCGCAATGTGCTG+CAGCACATTCAGCACGTCG ((((((((..(((((((((+)))))))))..))))))))” showed a Tm of 53.1 °C.
With “CGACGTGCTAAATGTGCTG+CAGCACATGTAGCACGTCG ((((((((((.((((((((+)))))))).))))))))))” the Tm was 55.7 °C.
For “CGACGTGCTTTATGTGCTG+CAGCACATTAAGCACGTCG ((((((((((.((((((((+)))))))).))))))))))”, the Tm was 55.2 °C.
For “CGACGTGCATTATGTGCTG+CAGCACATACTGCACGTCG (((((((((.(((((((((+))))))))).)))))))))”, the Tm was 53.8 °C.
In the case of “CGACGTGCTGAATGTGCTG+CAGCACATACAGCACGTCG ((((((((((.((((((((+)))))))).))))))))))”, the Tm is reported as 58.6 °C.
With “CGACGTGCGTTATGTGCTG+CAGCACATGATGCACGTCG ((((((((.(.((((((((+)))))))).).))))))))” the Tm was 54.6 °C.
With “CGACGTGCCACATGTGCTG+CAGCACATCGGGCACGTCG (((((((((..((((((((+))))))))..)))))))))” the Tm was 53.9 °C.
Substance “CGACGTGCCTAATGTGCTG+CAGCACATCAGGCACGTCG ((((((((((.((((((((+)))))))).))))))))))” has a Tm of 56.3 °C.
With “CGACGTGCTCGATGTGCTG+CAGCACATTGCGCACGTCG ((((((((.(.((((((((+)))))))).).))))))))” the Tm was 52.4 °C.
Substance “CGACGTGCCCGATGTGCTG+CAGCACATTGGGCACGTCG ((((((((((.((((((((+)))))))).))))))))))” has a Tm of 62.4 °C.
Work on “CGACGTGCTCGATGTGCTG+CAGCACATAAAGCACGTCG (((((((((..((((((((+))))))))..)))))))))” yielded a Tm of 52.7 °C.
In the case of “CGACGTGCTCTATGTGCTG+CAGCACATGGCGCACGTCG ((((((((.(.((((((((+)))))))).).))))))))”, the Tm is reported as 51.6 °C.
“CGACGTGCGTTATGTGCTG+CAGCACATTCAGCACGTCG ((((((((...((((((((+))))))))...))))))))” gave a Tm of 52.1 °C.
